These are literature values, as cited in article PMC8507859.

Like-named read-outs stand apart in the source and are kept apart here.

The target of data set [1] is MMP-14 (Homo sapiens) (UniProt P50281).
Data set [2] concerns the target Integrin α2 (Homo sapiens) (UniProt P17301).
Data set [3] concerns the target MMP-14 (Homo sapiens) (UniProt P50281). This is another data set of the same source.

Chain of TIMP-2 (P16035 27-220): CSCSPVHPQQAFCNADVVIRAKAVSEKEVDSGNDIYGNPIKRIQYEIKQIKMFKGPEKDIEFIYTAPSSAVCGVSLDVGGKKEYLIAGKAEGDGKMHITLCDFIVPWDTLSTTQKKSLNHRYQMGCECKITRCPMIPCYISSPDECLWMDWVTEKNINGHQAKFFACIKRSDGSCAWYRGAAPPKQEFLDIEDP
Chain of TIMP-1 (P01033 24-207): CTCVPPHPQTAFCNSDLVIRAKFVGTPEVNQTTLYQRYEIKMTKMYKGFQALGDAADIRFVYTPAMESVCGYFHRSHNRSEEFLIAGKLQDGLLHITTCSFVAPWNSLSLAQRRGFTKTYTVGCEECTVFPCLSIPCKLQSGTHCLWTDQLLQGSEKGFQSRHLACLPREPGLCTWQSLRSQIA
Chain of Lumican (P51884 19-338): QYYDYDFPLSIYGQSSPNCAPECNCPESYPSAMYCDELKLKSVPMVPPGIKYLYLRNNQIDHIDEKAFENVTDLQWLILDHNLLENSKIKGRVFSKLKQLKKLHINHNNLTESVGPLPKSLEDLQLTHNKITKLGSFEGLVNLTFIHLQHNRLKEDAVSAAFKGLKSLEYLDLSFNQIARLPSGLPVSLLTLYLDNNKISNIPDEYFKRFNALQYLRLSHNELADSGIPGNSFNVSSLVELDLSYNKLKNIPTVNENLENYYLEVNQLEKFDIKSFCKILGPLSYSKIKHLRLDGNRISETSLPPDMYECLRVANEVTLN
Chain of Integrin α2 (Homo sapiens) (P17301 30-1132): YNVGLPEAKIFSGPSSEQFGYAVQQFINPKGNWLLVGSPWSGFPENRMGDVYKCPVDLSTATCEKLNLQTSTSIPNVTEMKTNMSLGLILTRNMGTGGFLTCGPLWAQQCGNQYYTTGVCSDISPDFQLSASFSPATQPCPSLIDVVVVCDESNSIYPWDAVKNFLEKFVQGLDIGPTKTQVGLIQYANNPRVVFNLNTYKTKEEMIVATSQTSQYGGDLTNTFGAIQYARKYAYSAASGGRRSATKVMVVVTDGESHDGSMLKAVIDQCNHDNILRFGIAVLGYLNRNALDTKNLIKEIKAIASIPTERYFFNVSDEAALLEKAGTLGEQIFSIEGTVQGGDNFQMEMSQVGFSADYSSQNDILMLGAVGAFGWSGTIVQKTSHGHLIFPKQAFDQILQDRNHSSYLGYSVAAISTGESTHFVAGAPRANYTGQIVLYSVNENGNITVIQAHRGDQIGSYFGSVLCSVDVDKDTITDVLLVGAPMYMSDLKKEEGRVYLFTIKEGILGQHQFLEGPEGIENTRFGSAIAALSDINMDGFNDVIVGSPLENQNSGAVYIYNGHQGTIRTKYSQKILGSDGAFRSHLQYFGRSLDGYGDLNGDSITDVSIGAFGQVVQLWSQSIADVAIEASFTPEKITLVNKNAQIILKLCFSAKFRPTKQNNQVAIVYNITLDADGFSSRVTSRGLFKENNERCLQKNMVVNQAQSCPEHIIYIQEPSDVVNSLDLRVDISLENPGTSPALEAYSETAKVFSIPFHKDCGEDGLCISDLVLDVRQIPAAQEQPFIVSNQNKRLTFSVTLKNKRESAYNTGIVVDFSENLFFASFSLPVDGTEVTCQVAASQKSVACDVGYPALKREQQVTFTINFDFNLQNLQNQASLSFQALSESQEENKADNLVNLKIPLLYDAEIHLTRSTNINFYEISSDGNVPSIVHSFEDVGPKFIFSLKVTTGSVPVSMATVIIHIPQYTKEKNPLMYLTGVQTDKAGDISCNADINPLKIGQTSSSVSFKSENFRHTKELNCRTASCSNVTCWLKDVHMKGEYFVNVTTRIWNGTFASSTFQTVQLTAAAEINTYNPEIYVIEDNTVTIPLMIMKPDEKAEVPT

The term Kd denotes the free concentration of one partner at which half of the binding sites on the other are occupied at equilibrium, for simple one-to-one binding. Regarding TIMP-1 (from UniProt P01033), the Kd in data set [1] was 1530 nM.

Consider Lumican (from UniProt P51884), for which the Kd in data set [2] was 200 nM. TIMP-2 (from UniProt P16035): the Kd in data set [3] was 56.1 nM.
